In one assay the target is human GLP-1 receptor (human, UniProt P43220 24-463). Briefly: cell-based or functional assay.
The next assay addresses T1, human GIP receptor (human, UniProt P48546 22-466).
T1 sequence (looked up): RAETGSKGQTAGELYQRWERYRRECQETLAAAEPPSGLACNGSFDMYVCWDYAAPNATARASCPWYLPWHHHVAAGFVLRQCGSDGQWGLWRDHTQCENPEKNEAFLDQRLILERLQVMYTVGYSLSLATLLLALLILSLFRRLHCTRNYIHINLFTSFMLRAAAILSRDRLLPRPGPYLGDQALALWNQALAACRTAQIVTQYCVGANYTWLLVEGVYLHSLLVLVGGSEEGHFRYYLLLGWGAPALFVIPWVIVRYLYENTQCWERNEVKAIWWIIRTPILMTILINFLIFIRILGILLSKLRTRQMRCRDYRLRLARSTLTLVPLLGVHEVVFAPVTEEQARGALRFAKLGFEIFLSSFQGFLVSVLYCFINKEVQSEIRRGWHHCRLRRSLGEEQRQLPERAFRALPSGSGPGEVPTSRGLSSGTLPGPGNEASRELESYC
The assay can be described thus: cell-based or functional assay.

Bridges are numbered along the chain shown (N, C = ends). Where no end group is shown, it is not given here. [ ]: non-standard residue; d: D form. The star is where a group is joined. Phe(4-NO2) = N[C@@H](Cc1ccc([N+](=O)[O-])cc1)C(=O)O; Phe(4-F) = N[C@@H](Cc1ccc(F)cc1)C(=O)O; Palmitoyl = CCCCCCCCCCCCCCCC(=O)*; Met(O) = CS(=O)CC[C@H](N)C(=O)O; Phg = N[C@H](C(=O)O)c1ccccc1; Nle = CCCC[C@H](N)C(=O)O; Aib = CC(C)(N)C(=O)O Where only a bound is given, the exact number is not on record here.

human GLP-1 receptor, sequence (P43220 24-463): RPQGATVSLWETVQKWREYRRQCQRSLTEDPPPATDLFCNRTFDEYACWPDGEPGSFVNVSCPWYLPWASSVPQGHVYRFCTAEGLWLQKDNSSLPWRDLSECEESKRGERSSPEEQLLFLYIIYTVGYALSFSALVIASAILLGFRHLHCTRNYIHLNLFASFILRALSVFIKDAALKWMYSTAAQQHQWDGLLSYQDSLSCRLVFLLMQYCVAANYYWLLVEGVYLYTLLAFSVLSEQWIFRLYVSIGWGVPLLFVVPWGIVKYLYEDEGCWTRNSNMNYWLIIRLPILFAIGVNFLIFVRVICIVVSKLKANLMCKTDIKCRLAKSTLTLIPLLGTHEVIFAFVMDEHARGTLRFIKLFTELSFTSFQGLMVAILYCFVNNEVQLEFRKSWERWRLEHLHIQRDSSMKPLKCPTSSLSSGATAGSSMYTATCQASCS

Consider Y[Aib]EGTFTSDYSI[Phg][Nle]EKIHQQDFVNWLLAQ-NH2 [Analog 009], for which the “EC50, GLP-1 Receptor cAMP induction” value with human GLP-1 receptor was above 2000 nM. Further, the “EC50, GIP Receptor cAMP induction” value in the assay with human GIP receptor worked out at 22.2 nM.

In the case of Y[Aib]EGTFTSDYSIF[Nle]EKIHQQDFVNWLLAQ-NH2 [Analog 011], the “EC50, GLP-1 Receptor cAMP induction” value in the assay with human GLP-1 receptor came out at 1480 nM. In addition, the “EC50, GIP Receptor cAMP induction” value with human GIP receptor stood at 693 nM.

B1: Analog 084 (peptide)
peptide: Y[Aib]EGTFTSDYSEYMEKEAVREFIAWLVKGK(Palmitoyl)-NH2
modifications: lactam 12-16; N-terminus assumed
SMILES: CCCCCCCCCCCCCCCC(=O)NCCCC[C@H](NC(=O)CNC(=O)[C@H](CCCCN)NC(=O)[C@@H](NC(=O)[C@H](CC(C)C)NC(=O)[C@H](Cc1c[nH]c2ccccc12)NC(=O)[C@H](C)NC(=O)[C@@H](NC(=O)[C@H](Cc1ccccc1)NC(=O)[C@H](CCC(=O)O)NC(=O)[C@H](CCCNC(=N)N)NC(=O)[C@@H](NC(=O)[C@H](C)NC(=O)[C@H](CCC(=O)O)NC(=O)[C@@H]1CCCCNC(=O)CC[C@H](NC(=O)[C@H](CO)NC(=O)[C@H](Cc2ccc(O)cc2)NC(=O)[C@H](CC(=O)O)NC(=O)[C@H](CO)NC(=O)[C@@H](NC(=O)[C@H](Cc2ccccc2)NC(=O)[C@@H](NC(=O)CNC(=O)[C@H](CCC(=O)O)NC(=O)C(C)(C)NC(=O)[C@@H](N)Cc2ccc(O)cc2)[C@@H](C)O)[C@@H](C)O)C(=O)N[C@@H](Cc2ccc(O)cc2)C(=O)N[C@@H](CCSC)C(=O)N[C@@H](CCC(=O)O)C(=O)N1)C(C)C)[C@@H](C)CC)C(C)C)C(N)=O
In the case of B1, in the assay with human GLP-1 receptor, the “EC50, GLP-1 Receptor cAMP induction” value turned out to be 4.8 nM and the “Relative Potency, GLP-1 Receptor” value is 22.2%. Also, in the assay with human GIP receptor, the “EC50, GIP Receptor cAMP induction” value is 1.34 nM and the “Relative Potency, GIP Receptor” value was 8.8%.

As for Y[Aib]EGTFTSDYSIAMEKIHQQDFVNWLLAQ-NH2 [Analog 002], the “EC50, GLP-1 Receptor cAMP induction” value in the assay with human GLP-1 receptor stood at 995 nM. In addition, the “EC50, GIP Receptor cAMP induction” value with human GIP receptor came out at 11.1 nM.

As for Y[Aib]EGTFTSDYSIYMEKIHQQDFVNWLLAQ-NH2 [Analog 003], the “EC50, GLP-1 Receptor cAMP induction” value with human GLP-1 receptor stood at 483 nM. Further, in the assay with human GIP receptor, the “EC50, GIP Receptor cAMP induction” value came out at 0.18 nM and the “Relative Potency, GIP Receptor” value was determined as 77.7%.

As to Y[Aib]EGTFTSDYSI[Phe(4-NO2)]MEKIHQQDFVNWLLAQ-NH2 [Analog 016], the “EC50, GLP-1 Receptor cAMP induction” value with human GLP-1 receptor was 1670 nM. Further, in the assay with human GIP receptor, the “EC50, GIP Receptor cAMP induction” value amounted to 18.3 nM.

Regarding Y[Aib]EGTFTSDYSIY[Nle]EKEAQQDFVNWLLAQ-NH2 [Analog 020], the “EC50, GLP-1 Receptor cAMP induction” value with human GLP-1 receptor amounted to 830 nM. Also, in the assay with human GIP receptor, the “EC50, GIP Receptor cAMP induction” value came out at 0.27 nM and the “Relative Potency, GIP Receptor” value was 51.8%.

B2: Analog 067 (peptide)
peptide: Y[Aib]EGTFTSDYSIYMEKEAVK(Palmitoyl)EFIAWLVKG-NH2
modifications: N-terminus assumed
SMILES: CCCCCCCCCCCCCCCC(=O)NCCCC[C@H](NC(=O)[C@@H](NC(=O)[C@H](C)NC(=O)[C@H](CCC(=O)O)NC(=O)[C@H](CCCCN)NC(=O)[C@H](CCC(=O)O)NC(=O)[C@H](CCSC)NC(=O)[C@H](Cc1ccc(O)cc1)NC(=O)[C@@H](NC(=O)[C@H](CO)NC(=O)[C@H](Cc1ccc(O)cc1)NC(=O)[C@H](CC(=O)O)NC(=O)[C@H](CO)NC(=O)[C@@H](NC(=O)[C@H](Cc1ccccc1)NC(=O)[C@@H](NC(=O)CNC(=O)[C@H](CCC(=O)O)NC(=O)C(C)(C)NC(=O)[C@@H](N)Cc1ccc(O)cc1)[C@@H](C)O)[C@@H](C)O)[C@@H](C)CC)C(C)C)C(=O)N[C@@H](CCC(=O)O)C(=O)N[C@@H](Cc1ccccc1)C(=O)N[C@H](C(=O)N[C@@H](C)C(=O)N[C@@H](Cc1c[nH]c2ccccc12)C(=O)N[C@@H](CC(C)C)C(=O)N[C@H](C(=O)N[C@@H](CCCCN)C(=O)NCC(N)=O)C(C)C)[C@@H](C)CC
For the molecule B2, in the assay with human GLP-1 receptor, the “EC50, GLP-1 Receptor cAMP induction” value was found to be 7.87 nM and the “Relative Potency, GLP-1 Receptor” value was found to be 13.9%. For the same molecule, in the assay with human GIP receptor, the “EC50, GIP Receptor cAMP induction” value was found to be 3.7 nM and the “Relative Potency, GIP Receptor” value came to 4.6%.

As to Y[Aib]EGTFTSDYSIY[Nle]EKIHQQDFVNWLVRQ-NH2 [Analog 021], the “EC50, GLP-1 Receptor cAMP induction” value in the assay with human GLP-1 receptor stood at 217 nM. In the assay with human GIP receptor, the “EC50, GIP Receptor cAMP induction” value worked out at 2.3 nM and the “Relative Potency, GIP Receptor” value stood at 21.7%.

Turning to Y[Aib]EGTFTSDYSI[Phe(4-NO2)][Met(O)]EKIHQQDFVNWLLAQ-NH2 [Analog 005], the “EC50, GLP-1 Receptor cAMP induction” value with human GLP-1 receptor was above 2000 nM. Further, the “EC50, GIP Receptor cAMP induction” value with human GIP receptor is 76.5 nM.

Y[Aib]EGTFTSDYSI[Phe(4-F)][Met(O)]EKIHQQDFVNWLLAQ-NH2 [Analog 004]: the “EC50, GLP-1 Receptor cAMP induction” value in the assay with human GLP-1 receptor was determined as 926 nM. The “EC50, GIP Receptor cAMP induction” value with human GIP receptor came out at 14.6 nM.

Take Y[Aib]EGTFISDYSIA[Nle]EKIHQQDFVNWLLAQ-NH2 [Analog 010]: in the assay with human GLP-1 receptor, the “EC50, GLP-1 Receptor cAMP induction” value is above 2000 nM. The “EC50, GIP Receptor cAMP induction” value in the assay with human GIP receptor came to 11.5 nM.

B3: Analog 006 (peptide)
peptide: Y[Aib]EGTFISDYSIA[Met(O)]EKIHQQDFVNWLLAQ-NH2
modifications: N-terminus assumed
SMILES: CC[C@H](C)[C@H](NC(=O)[C@H](CO)NC(=O)[C@H](Cc1ccc(O)cc1)NC(=O)[C@H](CC(=O)O)NC(=O)[C@H](CO)NC(=O)[C@@H](NC(=O)[C@H](Cc1ccccc1)NC(=O)[C@@H](NC(=O)CNC(=O)[C@H](CCC(=O)O)NC(=O)C(C)(C)NC(=O)[C@@H](N)Cc1ccc(O)cc1)[C@@H](C)O)[C@@H](C)CC)C(=O)N[C@@H](C)C(=O)N[C@@H](CCS(C)=O)C(=O)N[C@@H](CCC(=O)O)C(=O)N[C@@H](CCCCN)C(=O)N[C@H](C(=O)N[C@@H](Cc1c[nH]cn1)C(=O)N[C@@H](CCC(N)=O)C(=O)N[C@@H](CCC(N)=O)C(=O)N[C@@H](CC(=O)O)C(=O)N[C@@H](Cc1ccccc1)C(=O)N[C@H](C(=O)N[C@@H](CC(N)=O)C(=O)N[C@@H](Cc1c[nH]c2ccccc12)C(=O)N[C@@H](CC(C)C)C(=O)N[C@@H](CC(C)C)C(=O)N[C@@H](C)C(=O)N[C@@H](CCC(N)=O)C(N)=O)C(C)C)[C@@H](C)CC
B3: the “EC50, GLP-1 Receptor cAMP induction” value in the assay with human GLP-1 receptor is above 2000 nM. Moreover, the “EC50, GIP Receptor cAMP induction” value with human GIP receptor came to 6.66 nM.

Take Y[Aib]EGTFTSDYSIF[Met(O)]EKIHQQDFVNWLLAQ-NH2 [Analog 007]: the “EC50, GLP-1 Receptor cAMP induction” value in the assay with human GLP-1 receptor amounted to 836 nM. Besides, the “EC50, GIP Receptor cAMP induction” value with human GIP receptor is 19 nM.

Regarding Y[Aib]EGTFTSDYSI[Phe(4-NO2)][Nle]EKIHQQDFVNWLLAQ-NH2 [Analog 008], the “EC50, GLP-1 Receptor cAMP induction” value with human GLP-1 receptor came to 1580 nM. In addition, in the assay with human GIP receptor, the “EC50, GIP Receptor cAMP induction” value was 24.2 nM.

B4: Analog 075 (peptide)
peptide: Y[Aib]EGTFTSDYSIYMEKEAVREFIAWLVKGRRRRRR-NH2
modifications: N-terminus assumed
SMILES: CC[C@H](C)[C@H](NC(=O)[C@H](Cc1ccccc1)NC(=O)[C@H](CCC(=O)O)NC(=O)[C@H](CCCNC(=N)N)NC(=O)[C@@H](NC(=O)[C@H](C)NC(=O)[C@H](CCC(=O)O)NC(=O)[C@H](CCCCN)NC(=O)[C@H](CCC(=O)O)NC(=O)[C@H](CCSC)NC(=O)[C@H](Cc1ccc(O)cc1)NC(=O)[C@@H](NC(=O)[C@H](CO)NC(=O)[C@H](Cc1ccc(O)cc1)NC(=O)[C@H](CC(=O)O)NC(=O)[C@H](CO)NC(=O)[C@@H](NC(=O)[C@H](Cc1ccccc1)NC(=O)[C@@H](NC(=O)CNC(=O)[C@H](CCC(=O)O)NC(=O)C(C)(C)NC(=O)[C@@H](N)Cc1ccc(O)cc1)[C@@H](C)O)[C@@H](C)O)[C@@H](C)CC)C(C)C)C(=O)N[C@@H](C)C(=O)N[C@@H](Cc1c[nH]c2ccccc12)C(=O)N[C@@H](CC(C)C)C(=O)N[C@H](C(=O)N[C@@H](CCCCN)C(=O)NCC(=O)N[C@@H](CCCNC(=N)N)C(=O)N[C@@H](CCCNC(=N)N)C(=O)N[C@@H](CCCNC(=N)N)C(=O)N[C@@H](CCCNC(=N)N)C(=O)N[C@@H](CCCNC(=N)N)C(=O)N[C@@H](CCCNC(=N)N)C(N)=O)C(C)C
As to B4, in the assay with human GLP-1 receptor, the “EC50, GLP-1 Receptor cAMP induction” value worked out at 1.41 nM and the “Relative Potency, GLP-1 Receptor” value came to 77.7%. Besides, in the assay with human GIP receptor, the “EC50, GIP Receptor cAMP induction” value was 1.45 nM and the “Relative Potency, GIP Receptor” value turned out to be 8.3%.

The values above are taken from patent US20140162945A1 (BEIJING HANMI PHARMACEUTICAL, published 2014).
